Blank lines part the entries; values can stand above or below the binder they belong to.
Columns and labels:
[1] = biological target: T1, zinc transporter (ZnT)8 peptide on HLA-A*02:01 (human); test: multimer staining
T1 peptide: AVAANIVLTV

[2] = biological target: T2, zinc transporter (ZnT)8 peptide on HLA-A*02:01 (human); test: multimer staining
T2 peptide: VAANIVLTV

[3] = biological target: T3, recombinant HLA-A2 molecules (human); test: stability measurement of recombinant HLA-A2 molecules complexed with the peptide (method not described; data not shown)
T3 construct: also called HLA-A*02:01

[4] = biological target: T3, recombinant HLA-A2 molecules; test: affinity measurement of recombinant HLA-A2 molecules complexed with the peptide (method not described; data not shown); ZnT8185-194 (…), the longer variant
[5] = biological target: T3, recombinant HLA-A2 molecules; test: affinity measurement of recombinant HLA-A2 molecules complexed with the peptide (method not described; data not shown); ZnT8186-194 (…), the shorter epitope

binding result [1]: recognises
binding result [2]: recognises
B1: D010R 1E2 (TCR)
alpha TRAV35*02 TRAJ36*01 CDR3: CAGTRNNLFF
beta TRBV19*01 TRBJ2-7*01 CDR3: CASGGSSYEQYF

binding result [2]: recognises
B5: D010R 12B4 (TCR)
alpha TRAV1-2*01 TRAJ26*01 CDR3: CAVDNYGQNFVF
beta TRBV19*01 TRBJ2-3*01 CDR3: CASTGLAGTQYF

t1/2 (stability of the peptide/HLA-A2 complex) [3]: 1.8 h
Kd [5]: 15 nM
B6: ZnT8186-194 peptide (VAANIVLTV) (peptide)
peptide: VAANIVLTV
notes: Synthesized by ChinaPeptides at >85% purity

More lines, now with the values behind:

B2: ZnT8185-194 peptide (AVAANIVLTV) (peptide)
peptide: AVAANIVLTV
notes: as for B6
t1/2 (stability of the peptide/HLA-A2 complex) [3]: 2.3 h
Kd [4]: 207 nM

B3: H328C 9B3 (TCR)
alpha TRAV21*01 TRAJ57*01 CDR3: CAVVRTQGGSEKLVF
beta TRBV9*01 TRBJ1-6*02 CDR3: CASSPWTGIPYNSPLHF
binding result [1]: recognises
binding result [2]: recognises

B4: H328C 9C8 (TCR)
alpha TRAV25*01 TRAJ26*01 CDR3: CAGILSYGQNFVF
beta TRBV25-1*01 TRBJ1-2*01 CDR3: CASSEVGQGFNGYTF
binding result [1]: recognises
binding result [2]: recognises

From US20180244746A1 (INSERM INSTITUT NATIONAL DE LA SANT ET DE LA RECHERCHE M …, published 2018)
